According to article PMC6326841:

Columns and labels:
[1] = molecular target: pyrene-labeled rabbit skeletal muscle F-actin (rabbit) (UniProt P68135); assay: stopped-flow fluorescence
[2] = molecular target: pyrene-labeled rabbit skeletal muscle F-actin (rabbit) (UniProt P68135); assay: other fluorescence titration
[3] = molecular target: RLC-depleted porcine cardiac myosin (pig (endogenous in porcine ventricular muscle)) (UniProt P79293); assay: reconstitution of RLC-depleted skinned muscle strips, SDS-PAGE densitometry
[4] = molecular target: RLC-depleted porcine cardiac myosin (pig (endogenous in porcine ventricular muscle)) (UniProt P79293); assay: reconstitution of RLC-depleted myosin, SDS-PAGE densitometry

Molecule: porcine cardiac myosin reconstituted with human cardiac R58Q RLC (from UniProt P79293 1-1935; P10916 1-166) (complex)
- kobs of actin-myosin dissociation at 10 μM MgATP [1]: 7.26 s⁻¹
- kobs of actin-myosin dissociation at 25 μM MgATP [1]: 15.1 s⁻¹
- kobs of actin-myosin dissociation at 40 μM MgATP [1]: 23.6 s⁻¹
- kobs of actin-myosin dissociation at 80 μM MgATP [1]: 45.6 s⁻¹
- kobs of actin-myosin dissociation at 150 μM MgATP [1]: 69.2 s⁻¹
- kobs of actin-myosin dissociation at 250 μM MgATP [1]: 107 s⁻¹
- Kd [2]: 13.3 nM

Molecule: porcine cardiac myosin reconstituted with human cardiac S15D-R58Q RLC (from UniProt P79293 1-1935; P10916 1-166) (complex)
- kobs of actin-myosin dissociation at 10 μM MgATP [1]: 7.29 s⁻¹
- kobs of actin-myosin dissociation at 25 μM MgATP [1]: 14.7 s⁻¹
- kobs of actin-myosin dissociation at 40 μM MgATP [1]: 25.3 s⁻¹
- kobs of actin-myosin dissociation at 80 μM MgATP [1]: 41.5 s⁻¹
- kobs of actin-myosin dissociation at 150 μM MgATP [1]: 74 s⁻¹
- kobs of actin-myosin dissociation at 250 μM MgATP [1]: 111 s⁻¹
- Kd [2]: 3.53 nM

Molecule: porcine cardiac myosin reconstituted with human cardiac WT RLC (from UniProt P79293 1-1935; P10916 1-166) (complex)
- kobs of actin-myosin dissociation at 10 μM MgATP [1]: 8.25 s⁻¹
- kobs of actin-myosin dissociation at 25 μM MgATP [1]: 15.7 s⁻¹
- kobs of actin-myosin dissociation at 40 μM MgATP [1]: 27.3 s⁻¹
- kobs of actin-myosin dissociation at 80 μM MgATP [1]: 48.9 s⁻¹
- kobs of actin-myosin dissociation at 150 μM MgATP [1]: 82.2 s⁻¹
- kobs of actin-myosin dissociation at 250 μM MgATP [1]: 107 s⁻¹
- Kd [2]: 2.13 nM

B1: human ventricular (cardiac) myosin regulatory light chain, wild type (natural protein)
chain: MAPKKAKKRAGGANSNVFSMFEQTQIQEFKEAFTIMDQNRDGFIDKNDLRDTFAALGRVNVKNEEIDEMIKEAPGPINFTVFLTMFGEKLKGADPEETILNAFKVFDPEGKGVLKADYVREMLTTQAERFSKEEVDQMFAAFPPDVTGNLDYKNLVHIITHGEEKD
- % RLC Present [3]: 61.3%
- % RLC Present [4]: 87.2%

B2: human ventricular myosin regulatory light chain R58Q mutant (natural protein)
chain: MAPKKAKKRAGGANSNVFSMFEQTQIQEFKEAFTIMDQNRDGFIDKNDLRDTFAALGQVNVKNEEIDEMIKEAPGPINFTVFLTMFGEKLKGADPEETILNAFKVFDPEGKGVLKADYVREMLTTQAERFSKEEVDQMFAAFPPDVTGNLDYKNLVHIITHGEEKD
- % RLC Present [3]: 54%
- % RLC Present [4]: 75.7%

B3: human ventricular myosin regulatory light chain S15D-R58Q phosphomimic double mutant (natural protein)
chain: MAPKKAKKRAGGANDNVFSMFEQTQIQEFKEAFTIMDQNRDGFIDKNDLRDTFAALGQVNVKNEEIDEMIKEAPGPINFTVFLTMFGEKLKGADPEETILNAFKVFDPEGKGVLKADYVREMLTTQAERFSKEEVDQMFAAFPPDVTGNLDYKNLVHIITHGEEKD
- % RLC Present [3]: 64.5%
- % RLC Present [4]: 86.9%
